The values below come from US20220127354A1 (Amgen, published 2022).

The target of assay [1] is T1, caCDH19(1-42)::FLAG::caCDH19(43-770) (construct Q, Ca EC1-5) (dog).
T1 construct: also called caCDH19(44-770); dog Cadherin19
T1 chain: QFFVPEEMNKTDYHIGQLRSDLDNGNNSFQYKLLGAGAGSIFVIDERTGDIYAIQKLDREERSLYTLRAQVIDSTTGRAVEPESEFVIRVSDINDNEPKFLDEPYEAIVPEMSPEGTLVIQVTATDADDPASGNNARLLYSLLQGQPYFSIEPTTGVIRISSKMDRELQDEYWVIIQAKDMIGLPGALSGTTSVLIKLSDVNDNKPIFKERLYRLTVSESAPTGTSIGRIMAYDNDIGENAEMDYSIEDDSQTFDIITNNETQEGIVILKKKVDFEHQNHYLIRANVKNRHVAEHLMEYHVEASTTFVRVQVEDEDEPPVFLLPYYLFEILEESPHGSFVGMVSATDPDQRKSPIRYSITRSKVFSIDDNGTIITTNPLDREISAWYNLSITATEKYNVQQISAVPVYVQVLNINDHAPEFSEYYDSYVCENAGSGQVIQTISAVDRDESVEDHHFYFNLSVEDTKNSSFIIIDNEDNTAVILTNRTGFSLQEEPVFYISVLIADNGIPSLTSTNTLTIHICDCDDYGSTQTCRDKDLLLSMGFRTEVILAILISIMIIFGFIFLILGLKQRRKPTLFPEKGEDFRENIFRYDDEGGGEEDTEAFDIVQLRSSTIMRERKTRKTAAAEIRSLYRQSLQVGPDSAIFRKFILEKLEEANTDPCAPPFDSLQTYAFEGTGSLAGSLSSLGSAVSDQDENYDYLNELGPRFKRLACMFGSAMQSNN
Briefly: flow cytometry, transfected 293T cells, 2 mM CaCl2. (In general: In flow cytometry, cells or beads pass a laser one at a time.)
Experimental: (§1) The following binding assay was completed in presence of 2 mM CaCl₂). […] Cells were then washed one time and the amount of cell associated Alexa647-labelled Ab was quantitated by flow cytometry. The experiments included mock transfected controls.

Assay [2] deals with T2, muCDH19(44-139)::huCDH19(142-364)::muCDH19(363-770) with Flag tag (construct E, Hu EC2-3) (human/mouse chimera).
T2 construct: leader left out; the entry starts at residue 44; also called C137847
Briefly: flow cytometry, transfected 293T cells.
Text: (§2) The experiment included assaying the anti-CDH19 antibodies against mouse Cadherin19 to determine suitability for binning on these human/mouse chimeras.

Assay [3] has as its target T3, muCDH19(44-247)::huCDH19(250-364)::muCDH19(363-770) with Flag tag (construct F, Hu EC3) (human/mouse chimera).
T3 construct: leader left out; the entry starts at residue 44; also called C137911
Briefly: flow cytometry, transfected 293T cells.
Text: as §2

In assay [4] the target is T4, muCDH19(44-323)::raCDH19(324-327)::muCDH19(328-770) with leader and FLAG (construct X) (rat/mouse chimera).
T4 construct: leader (1-43 of the entry) left out
T4 chain: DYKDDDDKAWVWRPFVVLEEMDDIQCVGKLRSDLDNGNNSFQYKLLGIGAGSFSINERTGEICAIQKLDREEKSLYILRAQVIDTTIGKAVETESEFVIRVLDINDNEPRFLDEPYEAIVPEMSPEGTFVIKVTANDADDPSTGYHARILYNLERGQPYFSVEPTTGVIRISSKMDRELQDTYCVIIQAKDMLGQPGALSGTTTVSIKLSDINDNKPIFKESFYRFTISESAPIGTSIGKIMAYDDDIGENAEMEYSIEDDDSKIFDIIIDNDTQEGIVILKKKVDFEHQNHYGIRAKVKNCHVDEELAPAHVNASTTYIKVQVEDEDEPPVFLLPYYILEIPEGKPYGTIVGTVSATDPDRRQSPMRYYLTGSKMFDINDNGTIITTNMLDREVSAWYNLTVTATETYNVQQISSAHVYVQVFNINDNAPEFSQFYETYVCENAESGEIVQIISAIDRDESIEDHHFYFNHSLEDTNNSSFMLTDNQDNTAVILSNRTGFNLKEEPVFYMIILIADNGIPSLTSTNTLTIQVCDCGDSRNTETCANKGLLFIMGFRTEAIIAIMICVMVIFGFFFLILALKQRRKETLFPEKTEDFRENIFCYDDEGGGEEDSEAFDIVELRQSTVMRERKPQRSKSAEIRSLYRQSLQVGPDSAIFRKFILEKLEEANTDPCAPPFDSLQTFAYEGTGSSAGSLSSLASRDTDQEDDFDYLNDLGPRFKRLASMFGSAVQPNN
Briefly: flow cytometry, transfected 293T cells, 2 mM CaCl2.
Experimental: as §1

The target in assay [5] is T5, muCDH19(44-770)::huCDH19(271) with leader and FLAG (construct Z) (human/mouse chimera).
T5 construct: leader (1-43 of the entry) left out
T5 chain: T4 chain with I234T, H289Q, N291S, H292Y
Briefly: flow cytometry, transfected 293T cells, 2 mM CaCl2.
Experimental: as §1

Substitutions are numbered along the chain they refer to.

B1: hu anti-<huCDH19> 4A9 (Ab ID 13589) (antibody, human IgG1, lambda, V domains shown)
VH: QVQLQESGPGLVKPSETLSLTCTVSGGSISGYYWSWIRQPPGKGLEWFAYFSYSGSTNYNPSLKSRVTLSVDTSKNQFSLKLSSVTAADTAVYYCARNWAFHFDFWGQGTLVTVSS
VL: QSVLTQPPSVSGAPGQRVTISCTGSSSNIGTGYAVHWYQQFPGTAPKLLIYGNNNRPSGVPDRFSGSKSGTSASLAITGLQAEDEADYYCQSYDSRLSGWVFGGGTKLTVLG
notes: huIgG1z / huLLC-C1; Bin 1
As for B1, the binding result in assay [1] was “no binding (tested: 5 ug/ml)”.

B2: hu anti-<huCDH19> 26D1.1 (Ab ID 13882) (antibody, human IgG1, lambda, V domains shown)
VH: QVQLVQSGAEVKKPGASVKVSCKASRYTFTSYYMSWVRQAPGQGLEWMGIIHPSGGDTTYAQKFQGRVTMTGDTSTSTVYMELSSLRSEDTAVYYCARGGIKLWLHFDYWGQGTLVTVSS
VL: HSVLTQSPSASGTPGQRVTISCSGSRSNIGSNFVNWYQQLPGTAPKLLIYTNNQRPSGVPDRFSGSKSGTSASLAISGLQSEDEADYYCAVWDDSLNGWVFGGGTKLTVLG
notes: huIgG1z / huLLC-C2; Bin 2
With B2, in assay [1], the binding result is “no binding (tested: 5 ug/ml)”.

B3: hu anti-<huCDH19> 4B10 (Ab ID 13590) (antibody, V domains shown)
VH: QVQLVESGGGVVQPGRSLRLSCAASGFTFSSYDMHWVRQAPGKGLEWVAVISYDGTNEYYADSVKGRFTISRDTSKNTLYLQMNSLRAEDTAVYYCARERYFDWSFDYWGQGTLVSVSS
VL: EIVLTQSPGTLSLSPGERATLSCRASQSVSNTYLAWYHQRPGQAPRLLIYGASSRATGIPDRFSGSGSGTDFALTISSLEPEDFAVYYCQQYSNSWTFGQGTKVEIKR
notes: huIgG1z / huKLC; Bin 4
For the molecule B3, the binding result is recorded as “binds” in assay [2], “binds” in assay [3], “binds” in assay [4] and “no binding (tested: 5 ug/ml)” in assay [5].

B4: anti-CDH19 antibody 2G6 (Ab ID 13588) (antibody, human IgG1, lambda, V domains shown)
VH: QVQLVESGGGVVQPGRSLRLSCAASGFTFSSYGMHWVRQAPGKGLEWVAFIWYDGSNKYYADSVKDRFTISRDNSKNTLYLQMKSLRAEDTAVYYCARRAGIIGTIGYYYGMDVWGQGTTVTVSS
VL: SYELTQPPSVSVSPGQTASITCSGDRLGEKYTCWYQQRPGQSPLLVIYQDTKRPSGIPERFSGSNSGNTATLTISGTQAMDEADYYCQAWDSSTVVFGGGTKLTVLG
notes: Bin 4
With B4, the binding result in assay [2], in assay [3], in assay [4] and in assay [5] was “binds” in each case.
